Laboratory results as given in the domain aggregation screens of Martell et al. (2025).

Experiment: soluble fraction after stress (log2 fold change); higher = more stays soluble; pooled small domains, quantitative proteomics
Conditions: stress: 75 degC
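Note: 20 min heating vs room temperature control held 20 min.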

Sequence	soluble fraction (log2)
HMLENSLDHIEGIGPKTKDTLLTYFKSVSKIKSANPSILAELIGAAKTKILLAAFEKEKTTS	-0.7
HMLENYEGFKQKILKLTGIDLSSYKERQMRRRIDSLIHRNNYDDYDEYFKALTQNSNLYDEFINYLTI	-0.823
HMLEQEDMYGYQMIETLRERSEHSFDLKAGTLYPLLHALEQKGLITARDEASAAGRPRRYYHLTDAG	-0.354
HMLERPLFTPEQYGRFRGKEARIRLSNPVEGRKTLTGSIVEATEERIVVFVEEEEREVTVPFQWIKSGNL	-0.544
HMLESVMHSRIAEIISREGTAPAHMSMQEKIRVVHKLDADGILMMKGAVAEIADQLSVSVPTIYRYLNKPQ	-2.49
HMLETILQIGKDGVGENLVKQVNDALEARELIKGRVLDNNLELDARTAAQILAKATRSEVVQVIGTKFV	-0.00194
HMLEVTQTDVKMYTTSGTPVYAAPDLNSAIVVYLERFVNVTVTGITDNGFYRVNLNGDYYIPGPYLISSV	-3.92
HMLEYIEPRTAVQIHGIKAKPELNGKRGMVMGYAPERMRYRVRIDVGEGTGGKESEEVYLKPENVIAVK	0.0615
HMLFKGDTREENVILEFLSKNGTTSSDAIIKQTGLSASEFNQAITMLELKGLALNNGGEKWSL	0.304
HMLGDAVLRQVLETIPEDPAVDYLELRRNTGMTEADLDRVLADLENLGVINKKRTVEQVLYWRT	-0.651
HMLGDAWSMLILRDAHSGFSRFDQFRKSLGIAPTMLTKRLSVLVDEGLLEKRQYSEHPPREEYVLTQAGQD	-0.0775
HMLGERIRTLRKEIGMSVTELARRVKTSPSHISEIERGEKMPSLNLLVKIAKELKTSIDYLTGLVG	-0.498
HMLGNIERALEMLQEVAATMDPVDIRLLLSMAQVESVRGNTEAAVKLIDEALVIDPGNERIEQIRLRVL	-0.482
HMLGRPDMSPIPEGSRNNDLHAWGFGRLANHPDNKRQIEADFFERGRISGLGDAEIRASWNSILRQLGHQ	0.0693
HMLGSVRTIRQVLDDGRLIVADGGGNPSVIRRSGALAHETFANGQRVIVDPSGRLALELLPD	0.171
HMLGVLEYYNNGQKKSERTFKGGMQIYTEWYENGQMKAEERKWIDQLGSLKFLNLLSTEWDENGNEISRME	-1.55
HMLGYGEQEREAQKYLEMHTAFQADPSLQKMYLPENQYALISKVMEMTGIKNVKSYLTPPNEL	-0.193
HMLHVRSALMSELDGIEGIGEKRKRLLFDAFITRDAIAAATLEQLMAVKGMNRPSAEAVHKHFHG	-0.985
HMLIELKIPSEWAGKSLHTLNLRQNYNVNVIGFRDEKSGKLNTHFDPSKKLPDEGIILVVADNRTLEKF	-0.7
HMLIIDLPDFTNKKLSELQQWADANQITLKIVEKDVSSKPYDTILEQTPAKNKYEKIVKGSTMTVTVNIK	-0.965
HMLINFPNKLKRLRLANNLTQQELANILETTKQAVSSYESGKSTPSLNSLIKLSEHFNISLDSLVFD	-0.038
HMLINIKTNSAVNVRSGPGMGFEVVNTYPSGYILQAKEMQKDGGDNVWYKVKDGWLSANYTIDI	-0.787
HMLINPLDILRNFNLSLYDDSRDSASNKEIDEIFESIKTNNSHIFSTLKAYRIPLPIASLIIKKIIKITLE	-0.891
HMLISDENMLRDLVQAVLDENPKSVSDYKSGKTKAFGFLVGQTMKAVKGQADPMLVNKILTELLN	0.236
HMLISYRVDALANEAGLSVDTIRYYQKLGILDPPKRTGRHSEYSPDHLERLIEIRRLADAGLTLSQISEI	-2.55
HMLKAKKIPVSDLEKFKGIVAEDVVSKAKALILPRGSNLSWLSNVAKKNLIAKLKAEGIEYISVYSS	-0.47

Sequence	soluble fraction (log2)
HMLKDGPIGAYADSVIRDIIEKMERFSKEHINVDMLKIHEKIMLIDEPIIRMALLDEFHRVSHDN	-2.47
HMLKEKETRALANFTNKFFGLDISEDLKPIALSELSKFKKTHKISNLEEFINSFQYDFQNEKILSLLDIFL	-1.34
HMLKFPIGTHVGKKKPSANLSLPNKHGVVIGHGERRNAKGAIMRFYIVETTHSSRPEEWAPGITYPL	-2.72
HMLKHEEIQEYIKEQINSGTWKPKAKLPSLRDMSELFSTSIGTVLTAYSALEKKHIIYSIPRSGYYVLG	-4.48
HMLKLEDIKKDAQVKGIVDGQIVRIVTVEPIGDHALTVYYKDHQGQFAERMLFRSDELNLELATA	-0.244
HMLKLSGEESQQLALRLREELARRRITRQGLADAAKISISTLEQVLAGRRTFTLATIVRLEEGLGIKLL	-2.65
HMLKNKSTGNINETKAILELALNHSHFKVFDNRDMTVTFKNLATQFTTMQRILVQMFFPLPAGVELIIE	0.428
HMLKNYATPEQRAQLDMLKDKGIIGENELMQLGKYPSQDKASEVLENHADAVKMLDSDEISNRAEAIRSHD	0.173
HMLKPQQTQRIYAMAARLGVLESGNKNDMLHTIVYRLTQKESIRSLNENEYKTVVSELAERLKL	-1.12
HMLKQLGRQEGRQEGAVDALRTVLALQIEQRFGPLDPTVQALIVAADIDALQRALSRVAVVSDLGAVFPP	-0.875
HMLKRLTVEFSAEMPKKMTSEQKEELASVLSEDPRPAYQNDENREYGLDYGEFSVKFKVKDGVLTVTSVTE	-0.0802
HMLLNLSPIETQVLRLIQQDKKVTYESIGKELTIGQTKVYKVLGHLKELNVIERIGGRTYGHWHILL	-1.33
HMLLNPFERLTERELEIADLYAKGYGNLEIANFLSIKQNTVSTYKKRIFEKLGIDNLVELIELIKNY	0.265
HMLLQTRQRHEALAALGYFKGDVAAAWGPASEEALRAAQAAFGITVDGKWGPQTEDAIQGALQV	-0.357
HMLLREKLESVLPFISVSALAKTYFKRSPQWFYQRLNGSIVNGKPIRFNDAELKTLAGALTDIGKKISQAA	-0.285
HMLLSEPSVLKFNDDNSYEIVSGFLTEYKDKIVKIERRYKKATVKITVAGEEKEIKVSFVEDTE	-1.43
HMLLSTHVVVAKEDVQIGTRLQPAMLQVVDWPSASPLKNPLTSIEQATDRVVNMPLVKGEPISMSKLAAKG	-0.296
HMLLTASNYFKETKGINFSELPEALQKGHSFVIKSTENGTNWNAYSTSQNIQRVIDAYFSKLDEYLEKNQ	-0.578
HMLLTHEEQIVKRGWQAPVGPFAILDSRAEAMHGDLEMLRGDREAAEQHFRRAWQIIGPIVEQ	-0.0144
HMLMKILTDALEKMSPEELKELAEATGVKNTSSITPETMVGVFQAVFRVGGFKSYQLTLIIVNAVLKA	-0.148
HMLMRKAEVGVESLNLRHGPGTQYKVLEILPGGKSLHYLAEPRRGWVRVTTEEGTTGWTFLKFLKPE	-2.22
HMLNENNHGEWSIRMSNGLVVRLGRDELNRSLRRSIMAYAGLAPNYRSSIEYIDARYLGGVALKTF	-0.159
HMLNKRQAEILAEVSRLKEITPSELYKLQPNVSSRTLRRDMDVLVNKGLVSQDGSTKSTKYTYL	0.193
HMLNMTLGDRIRSRREELRMSQEELATRLGYKSRSTIAKIESGENDLTQSKIVAFAEALSTTARWLLDY	-1.88
HMLNVNDVIARNVRAARERKKLTLDGAAELTGVSRSMLAQIEKGEVNPTISVVWKIANGFKVSFTSLVEPQ	-3.85
HMLPAGSDAILRYLSSGAVKGIGVATAARIVEKFGDETLRILEEEPGRLAEIKGITAAKAKAIGEAFAGQ	-0.356

Sequence	soluble fraction (log2)
HMLPELIVTTKKGVTVTVTNGVITYSATSNGKATFTVPNYGKWTVSATINGTVISKVVDVTEAKQIPVLLG	-1.07
HMLPERIQTIVALIGHGRAMDLVREFGGQEIKFPAQEGNDTWAALVEVIGEAATRKLAAVFGGGQAPPVYI	-1.17
HMLPGVPVVAGKTQSAATRILKAAGYAVSVVREEAFDGVTGTVLRTSPEAGSPLAPGSRVTLVVLQVV	-2.22
HMLPGWMETKFTANVSENTKNRTLEEHVLKMLNNKESAAEFIIFLHEKMMSVSGQVFQLDSR	-0.013
HMLPIGSSREQVISSLNKMHQDYKEEGNFIYAGYFKQGLPLVPSPRISIALQFNETAHLEKIDATLNYV	-0.343
HMLPKLAEEYAIMEIRGKGENLTAKLINKGGDSFMVRNGTVLQTGHRIDEITQTYVRAEINGMKDYLYFA	-0.645
HMLPLLAFDEKLNRLGYGGGFYDRTLASLAHKGNTITAIGIAYESQKMDKVPTGYFDRPLDGVLTPSGLIM	0.0528
HMLPNLWVMGPGDHLWRVAEVAMTKHLGRPVANHEIDGYWRRLVALNRESLIDPDNPDLVFAGQVIELPPF	-2.59
HMLPQGKGTAMWLADHLAAASVTLDAGARKLLEDTLGEDMSRLPGVLRVLEATFGSDAGRLSAEDIEPFL	0.075
HMLPRNKRIEIALTYIYGLGRHAATVVLKHANISPDKRTDDLDENDVRKLRDAIDANFRVEGDLRR	-1.55
HMLPTVSITGHIFIRSGSPLNRIFVGEKIYHVGDHIDRDWVIESIGIDTLTIRSGTLSTQLPL	-2.99
HMLPVFNYQVYRTHGLIYVYAKDNDSFDQIARSMGFKAKQLMKFNEVPEDFPLQAGDIVYLEKKKK	-2.35
HMLPVLEIGTMIRIIRQPHFGTIARVVALPEELTKVESETLVRILDAEFDDGTRVRIPRANVEVIE	-3.04
HMLPYGDRRRHTDNTISRIRELAAALDDSGIADRLNQDGYVTPEGKPFTYAGVRWIRYKYDISGPYERN	-1.91
HMLQKVELSDNEKFIFDSLQKEQKMALLRLKELVNLSNKAWDVSVKNLTKQGLVKVTKIDEELLIEI	-0.845
HMLQPQMKKFLNYESARNKMRPFGLSTRKEWRLFVDEGNRPADIPGDPYKKYKNKGWISWPHFLGK	-1.42
HMLRDTTLLHIDSIVRDGSTAMANITVRDEGTDLEFPLQLRMERGDMGWQVVRIVNYRAYLEAVQKA	-0.351
HMLRGKNALMSQLDQIQGIGPKRKRALFNHFLTLDAIKQADVETLRQAPGMNLPAAEQVYRHFHM	-0.2
HMLRIIDYNRVVKDLNGLTPEQLLEKLAESFTVEDKGTEEYRPTELHNFSMYLGGHWYSLTAKPGTYDDND	-1.2
HMLRMTRNRQKLVEVLMESGRPLSADEIREAAGFASTDLVTVYRNLEAFQSAGLLQRIPLENGSQLFELT	-0.46
HMLRNDEAVMLGRRLLNKHLQAFSVQIKDISHQRIHDLLDELELESLDHLLDDIGLGNRSVFLVAQKLLQ	-1.48
HMLRQRVFRIIQNNINSKNYFVYTKQILAELAGISMRSLNRTLSELQNDRLIIVDSGTIRLFT	-3.12
HMLRVGASVTANGKYWYDSYGSKPFGTANNLSTTVTRIVPGNPYPIHIGSYGWLQESQIQIT	-1.67
HMLSDADLAAFREVFDLVDKDKSGAIEMEEVEELTKLLGLDLTRDEVELLVREIDKDGNGEVDFEEFLLVM	0.00598
